The values below come from article PMC3877283, “Development of Novel Radiogallium-Labeled Bone Imaging Agents Using Oligo-Aspartic Acid Peptides as Carriers” (PLoS ONE, 2013).

This data set can be described thus: Biodistribution experiments in normal mice. The note with it: mouse, in vivo, iv. It counts as in vivo, ddY mice. As for the experimental part:
Experiments with animals were conducted in strict accordance with the Guidelines for the Care and Use of Laboratory Animals of Kanazawa University. The animal experimental protocols used were approved by the Committee on Animal Experimentation of Kanazawa University (Permit Number: AP-132633). Biodistribution experiments were performed after an intravenous administration of each diluted tracer solution (37 kBq/100 µL) to 6-week-old male ddY mice (27–32 g, Japan SLC, Inc., Hamamatsu, Japan). To investigate the effect of an excess amount of bisphosphonate on biodistribution, alendronate (20 mg/kg) was intravenously administered to mice 1 minute before the intravenous injection of ^67Ga-DOTA-(Asp)14 or ^67Ga-DOTA-Bn-SCN-HBP. Four to six mice each were sacrificed by decapitation at 10, 60, and 180 minutes post-injection. Tissues of interest were removed and weighed. Complete left femurs were isolated as representative bone samples, radioactivity was determined using an auto well gamma counter, and counts were corrected for background radiation and physical decay during counting.

Peptide text beside a SMILES is read from it. * marks the point of attachment. DOTA = O=C(O)CN1CCN(CC(=O)O)CCN(CC(=O)*)CCN(CC(=O)O)CC1

Turning to `O=C(O)C[C@H](NC(=O)[C@H](CC(=O)O)NC(=O)CN1CCN(CC(=O)O)CCN(CC(=O)O)CCN(CC(=O)O)CC1)C(=O)O` [67Ga-DOTA-(Asp)2, metal not drawn] ({DOTA}-Asp-Asp-OH), the “accumulation of radioactivity in the femur (in words)” value was “hardly accumulated in the femur”.
With `O=C(O)C[C@H](NC(=O)[C@H](CC(=O)O)NC(=O)[C@H](CC(=O)O)NC(=O)[C@H](CC(=O)O)NC(=O)[C@H](CC(=O)O)NC(=O)CN1CCN(CC(=O)O)CCN(CC(=O)O)CCN(CC(=O)O)CC1)C(=O)O` [67Ga-DOTA-(Asp)5, metal not drawn] ({DOTA}-DDDDD-OH), the “accumulation of radioactivity in the femur (in words)” value was “moderate accumulation”.
With `O=C(O)C[C@H](NC(=O)[C@H](CC(=O)O)NC(=O)[C@H](CC(=O)O)NC(=O)[C@H](CC(=O)O)NC(=O)[C@H](CC(=O)O)NC(=O)[C@H](CC(=O)O)NC(=O)[C@H](CC(=O)O)NC(=O)[C@H](CC(=O)O)NC(=O)CN1CCN(CC(=O)O)CCN(CC(=O)O)CCN(CC(=O)O)CC1)C(=O)O` [67Ga-DOTA-(Asp)8, metal not drawn] ({DOTA}-DDDDDDDD-OH) the entry was “higher accumulation”.
